PMC10718073 (Chemical Science, 2023)

Tests used:
Test in all cases: native MS
[1] = target: AmtB from Escherichia coli (Escherichia coli) (UniProt P69681)
[2] = target: AqpZ with C-terminal fusion to the green fluorescent protein (Escherichia coli) (UniProt P60844)
[3] = target: the molecule itself
[4] = target: the molecule itself; remark: listed apart in the source

Molecule: AmtB from Escherichia coli (from UniProt P69681 23-428) (natural protein)
- stoichiometry N [1]: 3

Molecule: AqpZ with C-terminal fusion to the green fluorescent protein (from UniProt P60844 1-231) (natural protein)
- stoichiometry N [2]: 4

B1: TRAAK (K2p4.1b), residues 1-290 with N104Q and N108Q (domain or fragment)
chain: MTTAPQEPPARPLQAGSGAGPAPGRAMRSTTLLALLALVLLYLVSGALVFRALEQPHEQQAQRELGEVREKFLRAHPCVSDQELGLLIKEVADALGGGADPETQSTSQSSHSAWDLGSAFFFSGTIITTIGYGNVALRTDAGRLFCIFYALVGIPLFGILLAGVGDRLGSSLRHGIGHIEAIFLKWHVPPELVRVLSAMLFLLIGCLLFVLTPTFVFCYMEDWSKLEAIYFVIVTLTTVGFGDYVAGADPRQDSPAYQPLVWFWILLGLAYFASVLTTIGNWLRVVSRRT
- stoichiometry N [3]: 2

B2: TREK2, residues 55-335 with T58A (domain or fragment)
chain: MEGASQGGLQTVMKWKTVVAIFVVVVVYLVTGGLVFRALEQPFESSQKNTIALEKAEFLRDHVCVSPQELETLIQHALDADNAGVSPIGNSSNNSSHWDLGSAFFFAGTVITTIGYGNIAPSTEGGKIFCILYAIFGIPLFGFLLAGIGDQLGTIFGKSIARVEKVFRKKQVSQTKIRVISTILFILAGCIVFVTIPAVIFKYIEGWTALESIYFVVVTLTTVGFGDFVAGGNAGINYREWYKPLVWFWILVGLAYFAAVLSMIGDWLRVLSKKTKEEVGE
modifications: glycans, treated with EndoH to reduce the glycan heterogeneity
- binding result [4]: binds
